Data on five molecules can be found in patent US20070105779A1, “Isolated, ssx-2 and ssx-2 related peptides useful as hla binders and ctl epitopes, and uses thereof” (priority 2002, published 2007).

The term IC50 denotes the concentration needed to halve the response being measured. The low end stands for greater potency, the high end for weaker potency.

The first experiment addresses HLA-A2. The experiment in a line: functional competition vs tyrosinase 368-376 on T2 cells, readout lysis by CTL LAU 156/34; relative to SEQ ID NO: 1.
For AAAAKIFYA (modifications not checked) [… (SEQ ID NO: 3)], the Relative binding came to 0.16.
In turn, AAAPAIFYA (modifications not checked) [… (SEQ ID NO: 4)] displayed a Relative binding of 0.9.
Still for that read-out and setting: with AAAPKIFYA (modifications not checked) [… (SEQ ID NO: 1)] the figure was 1.
With AAGPKIFYA (modifications not checked) [… (SEQ ID NO: 2)], the Relative binding was 0.07.
Same read-out and setting: as for AAAPKAFYA (modifications not checked) [… (SEQ ID NO: 5)], the figure is 0.1.

Another experiment concerns the target HLA-A2. The experiment in a line: functional competition vs tyrosinase 368-376 on T2 cells, readout lysis by CTL LAU 156/34; 50% inhibition.
In turn, AAAAKIFYA (modifications not checked) [… (SEQ ID NO: 3)] displayed an IC50 of 0.133 µM.
As for AAAPAIFYA (modifications not checked) [… (SEQ ID NO: 4)], the IC50 is 0.022 µM.
Still for that read-out and setting: with AAAPKIFYA (modifications not checked) [… (SEQ ID NO: 1)] the figure was 0.02 µM; with AAGPKIFYA (modifications not checked) [… (SEQ ID NO: 2)], 0.286 µM.
Still for that read-out and setting: with AAAPKAFYA (modifications not checked) [… (SEQ ID NO: 5)] the figure was 0.2 µM.

A further experiment deals with HLA-A2. The experiment in a line: functional competition vs tyrosinase 368-376 on T2 cells; relative to SEQ ID NO: 17.
AAAAKIFYA (modifications not checked) [… (SEQ ID NO: 3)] yielded a Relative binding of 1.5.
With AAAPAIFYA (modifications not checked) [… (SEQ ID NO: 4)], the Relative binding came out at 9.
Consider AAAPKIFYA (modifications not checked) [… (SEQ ID NO: 1)], for which the Relative binding was found to be 10.
For the molecule AAGPKIFYA (modifications not checked) [… (SEQ ID NO: 2)], the Relative binding was 0.7.
The same measure, in the same setting: as for AAAPKAFYA (modifications not checked) [… (SEQ ID NO: 5)], the figure is 1.
